This note sets out measurements from patent publication US20090018101.

Data set [1] has as its system M.SssI Q142A (DNA cytosine-C5 methyltransferase) Q142A (Spiroplasma sp.?). The note with it: natural cofactor AdoMet; R.BstUI protection assay, 37 C; analogs 5: 1.2, 7: 0.6.
Data set [2] relates to M.TaqI V21G V21G. The note with it: natural cofactor AdoMet; R.TaqI protection assay; analogs 3: 5, 4: <5, 5: 640, 6: 20, 7: 80, 8: 80, 9: 2560.
Data set [3] relates to M.BcnIB (DNA cytosine-N4 methyltransferase). The note with it: natural cofactor AdoMet; R.BcnI protection assay, 37 C; analogs 3-5: <7, 6: 0, 7: 28, 8: 14.
In data set [4] the target is M.TaqI (DNA adenine-N6 methyltransferase) (UniProt P14385). The following applies: natural cofactor AdoMet; R.TaqI protection assay, 60 C 4 h; analogs 3: 10, 4: <5, 5: 80, 6: 10, 7: 1280, 8: 640, 9: 640; cofactor 10: 11 u/ug (1 h).
M.TaqI (DNA adenine-N6 methyltransferase), sequence (P14385 whole entry): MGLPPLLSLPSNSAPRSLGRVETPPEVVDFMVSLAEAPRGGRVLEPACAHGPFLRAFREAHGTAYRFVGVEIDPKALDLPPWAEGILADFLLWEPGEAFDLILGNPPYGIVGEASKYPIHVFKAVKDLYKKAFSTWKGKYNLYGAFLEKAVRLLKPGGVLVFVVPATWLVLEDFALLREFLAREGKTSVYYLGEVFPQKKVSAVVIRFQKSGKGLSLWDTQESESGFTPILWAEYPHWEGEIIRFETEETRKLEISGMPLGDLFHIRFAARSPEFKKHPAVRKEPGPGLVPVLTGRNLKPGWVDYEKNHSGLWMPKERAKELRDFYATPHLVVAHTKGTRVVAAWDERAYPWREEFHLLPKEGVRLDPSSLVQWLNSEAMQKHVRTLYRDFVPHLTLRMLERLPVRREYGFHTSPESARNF
Data set [5] addresses T1, M.HhaI Q82A Q82A (UniProt P05102).
T1 sequence: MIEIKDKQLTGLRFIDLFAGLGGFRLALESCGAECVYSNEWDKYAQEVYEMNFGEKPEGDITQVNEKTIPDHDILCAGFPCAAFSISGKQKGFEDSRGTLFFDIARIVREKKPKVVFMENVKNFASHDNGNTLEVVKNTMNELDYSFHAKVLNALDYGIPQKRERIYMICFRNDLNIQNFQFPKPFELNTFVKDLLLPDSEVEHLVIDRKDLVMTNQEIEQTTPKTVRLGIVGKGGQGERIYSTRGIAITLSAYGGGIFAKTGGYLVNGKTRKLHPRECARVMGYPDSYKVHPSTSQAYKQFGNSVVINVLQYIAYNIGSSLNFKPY
The following applies: natural cofactor AdoMet; R.Hin6I protection assay; analogs 3: 7, 4: 0, 5: 29, 6: <4, 7: 58, 8: <4.

For data set [6], the system named is M.HhaI (DNA cytosine-C5 methyltransferase). The note with it: natural cofactor AdoMet; R.Hin6I protection assay, 37 C; analogs 3: <4, 4: 0, 5: 7, 6: <4, 7: 29, 8: <4.

Regarding phage lambda DNA (48502 bp), the activity in data set [1] came to 20 u/µg; in data set [2] it was 320 u/µg; in data set [3] it was 444 u/µg; in data set [4], 41000 u/µg; in data set [5], 115 u/µg; in data set [6] it was 460 u/µg.
